Results on 4 molecules are retold here after PMC9127220 (The Journal of Biological Chemistry, 2022).

B1: ParC subunit of topoisomerase IV (natural protein, Escherichia coli, UniProt P0AFI2 1-752, looked up)
chain: MSDMAERLALHEFTENAYLNYSMYVIMDRALPFIGDGLKPVQRRIVYAMSELGLNASAKFKKSARTVGDVLGKYHPHGDSACYEAMVLMAQPFSYRYPLVDGQGNWGAPDDPKSFAAMRYTESRLSKYSELLLSELGQGTADWVPNFDGTLQEPKMLPARLPNILLNGTTGIAVGMATDIPPHNLREVAQAAIALIDQPKTTLDQLLDIVQGPDYPTEAEIITSRAEIRKIYENGRGSVRMRAVWKKEDGAVVISALPHQVSGARVLEQIAAQMRNKKLPMVDDLRDESDHENPTRLVIVPRSNRVDMDQVMNHLFATTDLEKSYRINLNMIGLDGRPAVKNLLEILSEWLVFRRDTVRRRLNYRLEKVLKRLHILEGLLVAFLNIDEVIEIIRNEDEPKPALMSRFGLTETQAEAILELKLRHLAKLEEMKIRGEQSELEKERDQLQGILASERKMNNLLKKELQADAQAYGDDRRSPLQEREEAKAMSEHDMLPSEPVTIVLSQMGWVRSAKGHDIDAPGLNYKAGDSFKAAVKGKSNQPVVFVDSTGRSYAIDPITLPSARGQGEPLTGKLTLPPGATVDHMLMESDDQKLLMASDAGYGFVCTFNDLVARNRAGKALITLPENAHVMPPVVIEDASDMLLAITQAGRMLMFPVSDLPQLSKGKGNKIINIPSAEAARGEDGLAQLYVLPPQSTLTIHVGKRKIKLRPEELQKVTGERGRRGTLMRGLQRIDRVEIDSPRRASSGDSEE
B2: acyl carrier protein (AcpP) (natural protein, E. coli (endogenous in BL21(DE3)), UniProt P0A6A8 1-78, looked up)
chain: MSTIEERVKKIIGEQLGVKQEEVTNNASFVEDLGADSLDTVELVMALEEEFDTEIPDEEAEKITTVQAAIDYINGHQA
B3: MukF (natural protein, Escherichia coli, UniProt P60293 1-440, looked up)
chain: MSEFSQTVPELVAWARKNDFSISLPVDRLSFLLAVATLNGERLDGEMSEGELVDAFRHVSDAFEQTSETIGVRANNAINDMVRQRLLNRFTSEQAEGNAIYRLTPLGIGITDYYIRQREFSTLRLSMQLSIVAGELKRAADAAEEGGDEFHWHRNVYAPLKYSVAEIFDSIDLTQRLMDEQQQQVKDDIAQLLNKDWRAAISSCELLLSETSGTLRELQDTLEAAGDKLQANLLRIQDATMTHDDLHFVDRLVFDLQSKLDRIISWGQQSIDLWIGYDRHVHKFIRTAIDMDKNRVFAQRLRQSVQTYFDEPWALTYANADRLLDMRDEEMALRDEEVTGELPEDLEYEEFNEIREQLAAIIEEQLAVYKTRQVPLDLGLVVREYLSQYPRARHFDVARIVIDQAVRLGVAQADFTGLPAKWQPINDYGAKVQAHVIDKY
B4: MukB (natural protein, Escherichia coli, UniProt P22523 1-1486, looked up)
chain: MIERGKFRSLTLINWNGFFARTFDLDELVTTLSGGNGAGKSTTMAAFVTALIPDLTLLHFRNTTEAGATSGSRDKGLHGKLKAGVCYSMLDTINSRHQRVVVGVRLQQVAGRDRKVDIKPFAIQGLPMSVQPTQLVTETLNERQARVLPLNELKDKLEAMEGVQFKQFNSITDYHSLMFDLGIIARRLRSASDRSKFYRLIEASLYGGISSAITRSLRDYLLPENSGVRKAFQDMEAALRENRMTLEAIRVTQSDRDLFKHLISEATNYVAADYMRHANERRVHLDKALEFRRELHTSRQQLAAEQYKHVDMARELAEHNGAEGDLEADYQAASDHLNLVQTALRQQEKIERYEADLDELQIRLEEQNEVVAEAIERQQENEARAEAAELEVDELKSQLADYQQALDVQQTRAIQYNQAIAALNRAKELCHLPDLTADCAAEWLETFQAKELEATEKMLSLEQKMSMAQTAHSQFEQAYQLVVAINGPLARNEAWDVARELLREGVDQRHLAEQVQPLRMRLSELEQRLREQQEAERLLADFCKRQGKNFDIDELEALHQELEARIASLSDSVSNAREERMALRQEQEQLQSRIQSLMQRAPVWLAAQNSLNQLSEQCGEEFTSSQDVTEYLQQLLEREREAIVERDEVGARKNAVDEEIERLSQPGGSEDQRLNALAERFGGVLLSEIYDDVSLEDAPYFSALYGPSRHAIVVPDLSQVTEHLEGLTDCPEDLYLIEGDPQSFDDSVFSVDELEKAVVVKIADRQWRYSRFPEVPLFGRAARESRIESLHAEREVLSERFATLSFDVQKTQRLHQAFSRFIGSHLAVAFESDPEAEIRQLNSRRVELERALSNHENDNQQQRIQFEQAKEGVTALNRILPRLNLLADDSLADRVDEIRERLDEAQEAARFVQQFGNQLAKLEPIVSVLQSDPEQFEQLKEDYAYSQQMQRDARQQAFALTEVVQRRAHFSYSDSAEMLSGNSDLNEKLRERLEQAEAERTRAREALRGHAAQLSQYNQVLASLKSSYDTKKELLNDLQRELQDIGVRADSGAEERARIRRDELHAQLSNNRSRRNQLEKALTFCEAEMDNLTRKLRKLERDYFEMREQVVTAKAGWCAVMRMVKDNGVERRLHRRELAYLSADDLRSMSDKALGALRLAVADNEHLRDVLRMSEDPKRPERKIQFFVAVYQHLRERIRQDIIRTDDPVEAIEQMEIELSRLTEELTSREQKLAISSRSVANIIRKTIQREQNRIRMLNQGLQNVSFGQVNSVRLNVNVRETHAMLLDVLSEQHEQHQDLFNSNRLTFSEALAKLYQRLNPQIDMGQRTPQTIGEELLDYRNYLEMEVEVNRGSDGWLRAESGALSTGEAIGTGMSILVMVVQSWEDESRRLRGKDISPCRLLFLDEAARLDARSIATLFELCERLQMQLIIAAPENISPEKGTTYKLVRKVFQNTEHVHVVGLRGFAPQLPETLPGTDEAPSQAS

For data set [1], the target named is B4. Nature of the data set: cross-linking.
Data set [2] deals with B4. Nature of the data set: co-purification.
Data set [3] addresses B4. The data set is described as follows: cross-linking. The source holds these as a separate data set.
The data set “cross-linking” concerns the molecule itself. The data set is described as follows: cross-linking.

Where two headings read alike, the source gives them in different places.

With B1, the binding result with MukB [1] was “binds”. Take B2: the “stoichiometry N” value with MukB [2] is 1 AcpP:MukB. Take B3: in the data set with MukB [3], the binding result is on record as “binds”. B4: in “cross-linking”, the binding result is on record as “binds”.
